# Measurements from publication PMC10681739, “High-throughput data and modeling reveal insights into the mechanisms of cooperative DNA-binding by transcription factor proteins”.
# T1: ETS1 x2 (Homo sapiens, UniProt P14921)
# T1 sequence: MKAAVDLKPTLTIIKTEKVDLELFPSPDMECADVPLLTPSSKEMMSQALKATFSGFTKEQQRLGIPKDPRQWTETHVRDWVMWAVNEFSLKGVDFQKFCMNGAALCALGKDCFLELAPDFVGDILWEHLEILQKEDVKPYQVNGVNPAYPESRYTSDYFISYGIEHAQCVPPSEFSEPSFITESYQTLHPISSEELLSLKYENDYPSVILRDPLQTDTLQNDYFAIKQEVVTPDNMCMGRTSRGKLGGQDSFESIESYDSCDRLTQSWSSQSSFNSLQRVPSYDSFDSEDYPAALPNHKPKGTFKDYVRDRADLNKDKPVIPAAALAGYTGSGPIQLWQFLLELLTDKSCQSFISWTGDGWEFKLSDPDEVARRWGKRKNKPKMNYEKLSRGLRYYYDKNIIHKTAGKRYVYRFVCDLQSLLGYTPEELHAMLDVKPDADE
# B1: Table S4 A row 314 (dsDNA)
# DNA 1: TTGGGAGGCACAGGAAGACCGGATGTGGTTTAAGAA
# DNA 2: TTCTTAAACCACATCCGGTCTTCCTGTGCCTCCCAA
# B2: Table S4 A row 1964 (dsDNA)
# DNA 1: CCACGGTGGTGACTTCCTTTTCCGCTCCCCTACACA
# DNA 2: TGTGTAGGGGAGCGGAAAAGGAAGTCACCACCGTGG
# B3: Table S4 A row 2352 (dsDNA)
# DNA 1: CGCCGCTGACACCGGAACCGGAAACTTCATCAGGAG
# DNA 2: CTCCTGATGAAGTTTCCGGTTCCGGTGTCAGCGGCG
# B4: Table S4 A row 323 (dsDNA)
# DNA 1: TCCATGACCCCATTTCCGCTTCCTACAGGTGAGTGT
# DNA 2: ACACTCACCTGTAGGAAGCGGAAATGGGGTCATGGA
# B5: Table S4 A row 1340 (dsDNA)
# DNA 1: TTGAGGCCCAGACCGGAACTTCCTTTCGGCCTCAGT
# DNA 2: ACTGAGGCCGAAAGGAAGTTCCGGTCTGGGCCTCAA
# B6: Table S4 A row 2476 (dsDNA)
# DNA 1: TGTGCCGTAGCATTTCCGGCGGAAGTTGCTGGGCGC
# DNA 2: GCGCCCAGCAACTTCCGCCGGAAATGCTACGGCACA
# B7: Table S4 A row 842 (dsDNA)
# DNA 1: GGGTGGCCCAGGCTTCCGCTTCCTGCCCACATACCC
# DNA 2: GGGTATGTGGGCAGGAAGCGGAAGCCTGGGCCACCC
# B8: Table S4 A row 2364 (dsDNA)
# DNA 1: GTGGGGCTTCCTGCCGCAGAGCCGCCTTCCGCCCTC
# DNA 2: GAGGGCGGAAGGCGGCTCTGCGGCAGGAAGCCCCAC
# B9: Table S4 A row 763 (dsDNA)
# DNA 1: GGGCAACTTCCGCGACCTCTACCACATCCTTGAGAA
# DNA 2: TTCTCAAGGATGTGGTAGAGGTCGCGGAAGTTGCCC
# B10: Table S4 A row 2250 (dsDNA)
# DNA 1: CTGACAGACCCGGAAATAAGAGGAAACCACACACTT
# DNA 2: AAGTGTGTGGTTTCCTCTTATTTCCGGGTCTGTCAG
# B11: Table S4 A row 1450 (dsDNA)
# DNA 1: CTCCCACTTCCTTCCTGTGCGGGGAAGAAAACTGCC
# DNA 2: GGCAGTTTTCTTCCCCGCACAGGAAGGAAGTGGGAG
# B12: Table S4 A row 1614 (dsDNA)
# DNA 1: GTTCTTCGACCCGGATGCGCTTCCTAATAAAACGGC
# DNA 2: GCCGTTTTATTAGGAAGCGCATCCGGGTCGAAGAAC
# B13: Table S4 A row 1913 (dsDNA)
# DNA 1: AAATAACAGAAAGGAAATACATCCTGCCAGTTAACA
# DNA 2: TGTTAACTGGCAGGATGTATTTCCTTTCTGTTATTT
# B14: Table S4 A row 189 (dsDNA)
# DNA 1: CACTTTCTGAAGAGGAAACAGGAAGTGTGTTTCATA
# DNA 2: TATGAAACACACTTCCTGTTTCCTCTTCAGAAAGTG
# B15: Table S4 A row 1689 (dsDNA)
# DNA 1: TGCCCGGATGTTGAGGTCTGGTTGGCATTTCCTGTG
# DNA 2: CACAGGAAATGCCAACCAGACCTCAACATCCGGGCA
# B16: Table S4 A row 557 (dsDNA)
# DNA 1: TTGACATCCTGCTCTCCTGTGACTTTGCTTCCTGTT
# DNA 2: AACAGGAAGCAAAGTCACAGGAGAGCAGGATGTCAA
# B17: Table S4 A row 916 (dsDNA)
# DNA 1: ACTGCAGATCCCCTTCCTGTTTCCTTTGCTCTCCTG
# DNA 2: CAGGAGAGCAAAGGAAACAGGAAGGGGATCTGCAGT
# B18: Table S4 A row 1991 (dsDNA)
# DNA 1: GCGCGCACCCTCCTTCCGGCATCCGTAGAACCCCCG
# DNA 2: CGGGGGTTCTACGGATGCCGGAAGGAGGGTGCGCGC
# B19: Table S4 A row 1203 (dsDNA)
# DNA 1: GGAGCGGAAGCCCTTTACACTACGGTGTTTCCGGCT
# DNA 2: AGCCGGAAACACCGTAGTGTAAAGGGCTTCCGCTCC
# B20: Table S4 A row 954 (dsDNA)
# DNA 1: GGTATACAGGAAACCCAGAGAGACAGGAAATGTCTC
# DNA 2: GAGACATTTCCTGTCTCTCTGGGTTTCCTGTATACC
# B21: Table S4 A row 809 (dsDNA)
# DNA 1: GCTTGGGTGTTTCCTGTGCTGCTTCCTCTCCAACCT
# DNA 2: AGGTTGGAGAGGAAGCAGCACAGGAAACACCCAAGC
# B22: Table S4 A row 822 (dsDNA)
# DNA 1: AGCAGCTCAACAGGAAATACATCCTTTTCTGGTTGA
# DNA 2: TCAACCAGAAAAGGATGTATTTCCTGTTGAGCTGCT
# B23: Table S4 A row 2376 (dsDNA)
# DNA 1: CCCAGAGCCAATTTTCCACTTCCGCTTCCGGCGCTG
# DNA 2: CAGCGCCGGAAGCGGAAGTGGAAAATTGGCTCTGGG
# B24: Table S4 A row 57 (dsDNA)
# DNA 1: ACTGGAGAACAGGAAATAGCAGGAAACGTCACCTAC
# DNA 2: GTAGGTGACGTTTCCTGCTATTTCCTGTTCTCCAGT
# B25: Table S4 A row 2128 (dsDNA)
# DNA 1: CCGGCCCGCAGCCGGAACCGGAAATGCCCTTAGGGA
# DNA 2: TCCCTAAGGGCATTTCCGGTTCCGGCTGCGGGCCGG
# B26: Table S4 A row 255 (dsDNA)
# DNA 1: CTGGAGGCAGGCTTCCTGTGCTTCCTGTAGGTGACA
# DNA 2: TGTCACCTACAGGAAGCACAGGAAGCCTGCCTCCAG
# B27: Table S4 A row 1887 (dsDNA)
# DNA 1: CACTCAGGAAGTAGGTCAGGAGGAGATATCCTGTGT
# DNA 2: ACACAGGATATCTCCTCCTGACCTACTTCCTGAGTG
# B28: Table S4 A row 215 (dsDNA)
# DNA 1: GGGCCCCAGCTTCCTCTCTGCCTTCCGCCGCCCGCT
# DNA 2: AGCGGGCGGCGGAAGGCAGAGAGGAAGCTGGGGCCC
# B29: Table S4 A row 2310 (dsDNA)
# DNA 1: CATACGGCGCCACCGGAAGTTCCGGCAAGTGGGCCC
# DNA 2: GGGCCCACTTGCCGGAACTTCCGGTGGCGCCGTATG
# B30: Table S4 A row 1898 (dsDNA)
# DNA 1: CCACCGGAAGACCTCAGTCATGTGGGTTTTCCGGTT
# DNA 2: AACCGGAAAACCCACATGACTGAGGTCTTCCGGTGG
# B31: Table S4 A row 2457 (dsDNA)
# DNA 1: TGCAGCTAACTACTTCCGCTTCCGCTTGCGTCCCCT
# DNA 2: AGGGGACGCAAGCGGAAGCGGAAGTAGTTAGCTGCA
# B32: Table S4 A row 634 (dsDNA)
# DNA 1: AGACAGACACTGCTTCCTGCTTCCTAATGGCCGATC
# DNA 2: GATCGGCCATTAGGAAGCAGGAAGCAGTGTCTGTCT
# Target: T1, ETS1 x2
# Test: gcPBM; 10 nM ETS1
# Conditions: tags: N-terminal GST (pDEST15), kept (PMC6008103); chain copies: 2; label: surface-attached array probe
row,Binder,binding signal
1,B1,"12700 PBM fluorescence, median of replicate spots"
2,B2,"7690 PBM fluorescence, median of replicate spots"
3,B3,"6600 PBM fluorescence, median of replicate spots"
4,B4,"21500 PBM fluorescence, median of replicate spots"
5,B5,"5800 PBM fluorescence, median of replicate spots"
6,B6,"26900 PBM fluorescence, median of replicate spots"
7,B7,"10900 PBM fluorescence, median of replicate spots"
8,B8,"17300 PBM fluorescence, median of replicate spots"
9,B9,"19000 PBM fluorescence, median of replicate spots"
10,B10,"8250 PBM fluorescence, median of replicate spots"
11,B11,"25000 PBM fluorescence, median of replicate spots"
12,B12,"5240 PBM fluorescence, median of replicate spots"
13,B13,"8690 PBM fluorescence, median of replicate spots"
14,B14,"8380 PBM fluorescence, median of replicate spots"
15,B15,"9040 PBM fluorescence, median of replicate spots"
16,B16,"20500 PBM fluorescence, median of replicate spots"

row,Binder,binding signal
1,B17,"6260 PBM fluorescence, median of replicate spots"
2,B18,"15100 PBM fluorescence, median of replicate spots"
3,B19,"5440 PBM fluorescence, median of replicate spots"
4,B20,"5630 PBM fluorescence, median of replicate spots"
5,B21,"23300 PBM fluorescence, median of replicate spots"
6,B22,"11900 PBM fluorescence, median of replicate spots"
7,B23,"15700 PBM fluorescence, median of replicate spots"
8,B24,"13600 PBM fluorescence, median of replicate spots"
9,B25,"17000 PBM fluorescence, median of replicate spots"
10,B26,"9790 PBM fluorescence, median of replicate spots"
11,B27,"6420 PBM fluorescence, median of replicate spots"
12,B28,"6960 PBM fluorescence, median of replicate spots"
13,B29,"18500 PBM fluorescence, median of replicate spots"
14,B30,"7470 PBM fluorescence, median of replicate spots"
15,B31,"24300 PBM fluorescence, median of replicate spots"
16,B32,"10500 PBM fluorescence, median of replicate spots"
